Results: patent US20250276090A1, “Methods and Compositions for Genetically Modifying a Cell” (Intellia Therapeutics, Inc., priority 2022, published 2025)
Strand notation (5' to 3'): a small letter for the sugar, then the base; units joined by * are phosphorothioate-linked, units joined directly phosphodiester-linked; [ ] holds rarer units or linkages, { } end groups; capitals alone tell only the bases. m = 2'-O-methyl; r = 2'-OH (RNA)

B1: G013523: AAVS1 SpyCas9 guide RNA, guide sequence SEQ ID NO: 255, chr19:55115637-55115657 (nucleic acid)
guide: mG*mG*mU*rGrArCrArCrArCrCrCrCrCrArUrUrUrCrCrGrUrUrUrUrArGrAmGmCmUmAmGmAmAmAmUmAmGmCrArArGrUrUrArArArArUrArArGrGrCrUrArGrUrCrCrGrUrUrArUrCrAmAmCmUmUmGmAmAmAmAmAmGmUmGmGmCmAmCmCmGmAmGmUmCmGmGmUmGmCmU*mU*mU*mU
B2: G013533: AAVS1 SpyCas9 guide RNA, guide sequence SEQ ID NO: 256, chr19:55115691-55115711 (nucleic acid)
guide: mA*mG*mA*rCrCrCrArArUrArUrCrArGrGrArGrArCrUrGrUrUrUrUrArGrAmGmCmUmAmGmAmAmAmUmAmGmCrArArGrUrUrArArArArUrArArGrGrCrUrArGrUrCrCrGrUrUrArUrCrAmAmCmUmUmGmAmAmAmAmAmGmUmGmGmCmAmCmCmGmAmGmUmCmGmGmUmGmCmU*mU*mU*mU
B3: G000562: AAVS1 SpyCas9 guide RNA, guide sequence SEQ ID NO: 251, chr19:55115695-55115715 (nucleic acid)
guide: mC*mC*mA*rArUrArUrCrArGrGrArGrArCrUrArGrGrArGrUrUrUrUrArGrAmGmCmUmAmGmAmAmAmUmAmGmCrArArGrUrUrArArArArUrArArGrGrCrUrArGrUrCrCrGrUrUrArUrCrAmAmCmUmUmGmAmAmAmAmAmGmUmGmGmCmAmCmCmGmAmGmUmCmGmGmUmGmCmU*mU*mU*mU
B4: G013559: AAVS1 SpyCas9 guide RNA, guide sequence SEQ ID NO: 258, chr19:55115823-55115843 (nucleic acid)
guide: mC*mC*mG*rGrCrCrCrUrGrGrGrArArUrArUrArArGrGrGrUrUrUrUrArGrAmGmCmUmAmGmAmAmAmUmAmGmCrArArGrUrUrArArArArUrArArGrGrCrUrArGrUrCrCrGrUrUrArUrCrAmAmCmUmUmGmAmAmAmAmAmGmUmGmGmCmAmCmCmGmAmGmUmCmGmGmUmGmCmU*mU*mU*mU
B5: G013563: AAVS1 SpyCas9 guide RNA, guide sequence SEQ ID NO: 260, chr19:55115835-55115855 (nucleic acid)
guide: mA*mU*mA*rUrArArGrGrUrGrGrUrCrCrCrArGrCrUrCrGrUrUrUrUrArGrAmGmCmUmAmGmAmAmAmUmAmGmCrArArGrUrUrArArArArUrArArGrGrCrUrArGrUrCrCrGrUrUrArUrCrAmAmCmUmUmGmAmAmAmAmAmGmUmGmGmCmAmCmCmGmAmGmUmCmGmGmUmGmCmU*mU*mU*mU
B6: G013582: AAVS1 SpyCas9 guide RNA, guide sequence SEQ ID NO: 263, chr19:55115951-55115971 (nucleic acid)
guide: mC*mC*mU*rGrUrCrArUrGrGrCrArUrCrUrUrCrCrArGrGrUrUrUrUrArGrAmGmCmUmAmGmAmAmAmUmAmGmCrArArGrUrUrArArArArUrArArGrGrCrUrArGrUrCrCrGrUrUrArUrCrAmAmCmUmUmGmAmAmAmAmAmGmUmGmGmCmAmCmCmGmAmGmUmCmGmGmUmGmCmU*mU*mU*mU
B7: G013520: AAVS1 SpyCas9 guide RNA, guide sequence SEQ ID NO: 254, chr19:55115623-55115643 (nucleic acid)
guide: mG*mA*mG*rArGrArUrGrGrCrUrCrCrArGrGrArArArUrGrUrUrUrUrArGrAmGmCmUmAmGmAmAmAmUmAmGmCrArArGrUrUrArArArArUrArArGrGrCrUrArGrUrCrCrGrUrUrArUrCrAmAmCmUmUmGmAmAmAmAmAmGmUmGmGmCmAmCmCmGmAmGmUmCmGmGmUmGmCmU*mU*mU*mU
B8: G013565: AAVS1 SpyCas9 guide RNA, guide sequence SEQ ID NO: 262, chr19:55115850-55115870 (nucleic acid)
guide: mG*mG*mA*rUrCrCrUrGrUrGrUrCrCrCrCrGrArGrCrUrGrUrUrUrUrArGrAmGmCmUmAmGmAmAmAmUmAmGmCrArArGrUrUrArArArArUrArArGrGrCrUrArGrUrCrCrGrUrUrArUrCrAmAmCmUmUmGmAmAmAmAmAmGmUmGmGmCmAmCmCmGmAmGmUmCmGmGmUmGmCmU*mU*mU*mU
B9: G013562: AAVS1 SpyCas9 guide RNA, guide sequence SEQ ID NO: 259, chr19:55115834-55115854 (nucleic acid)
guide: mA*mA*mU*rArUrArArGrGrUrGrGrUrCrCrCrArGrCrUrGrUrUrUrUrArGrAmGmCmUmAmGmAmAmAmUmAmGmCrArArGrUrUrArArArArUrArArGrGrCrUrArGrUrCrCrGrUrUrArUrCrAmAmCmUmUmGmAmAmAmAmAmGmUmGmGmCmAmCmCmGmAmGmUmCmGmGmUmGmCmU*mU*mU*mU
B10: G013515: AAVS1 SpyCas9 guide RNA, guide sequence SEQ ID NO: 252, chr19:55115588-55115608 (nucleic acid)
guide: mC*mC*mA*rUrCrGrUrArArGrCrArArArCrCrUrUrArGrGrUrUrUrUrArGrAmGmCmUmAmGmAmAmAmUmAmGmCrArArGrUrUrArArArArUrArArGrGrCrUrArGrUrCrCrGrUrUrArUrCrAmAmCmUmUmGmAmAmAmAmAmGmUmGmGmCmAmCmCmGmAmGmUmCmGmGmUmGmCmU*mU*mU*mU
B11: G013584: AAVS1 SpyCas9 guide RNA, guide sequence SEQ ID NO: 264, chr19:55115949-55115969 (nucleic acid)
guide: mC*mC*mC*rUrGrGrArArGrArUrGrCrCrArUrGrArCrArGrUrUrUrUrArGrAmGmCmUmAmGmAmAmAmUmAmGmCrArArGrUrUrArArArArUrArArGrGrCrUrArGrUrCrCrGrUrUrArUrCrAmAmCmUmUmGmAmAmAmAmAmGmUmGmGmCmAmCmCmGmAmGmUmCmGmGmUmGmCmU*mU*mU*mU
B12: G013564: AAVS1 SpyCas9 guide RNA, guide sequence SEQ ID NO: 261, chr19:55115836-55115856 (nucleic acid)
guide: mU*mA*mU*rArArGrGrUrGrGrUrCrCrCrArGrCrUrCrGrGrUrUrUrUrArGrAmGmCmUmAmGmAmAmAmUmAmGmCrArArGrUrUrArArArArUrArArGrGrCrUrArGrUrCrCrGrUrUrArUrCrAmAmCmUmUmGmAmAmAmAmAmGmUmGmGmCmAmCmCmGmAmGmUmCmGmGmUmGmCmU*mU*mU*mU
B13: G013519: AAVS1 SpyCas9 guide RNA, guide sequence SEQ ID NO: 253, chr19:55115616-55115636 (nucleic acid)
guide: mG*mC*mA*rArGrGrArGrArGrArGrArUrGrGrCrUrCrCrGrUrUrUrUrArGrAmGmCmUmAmGmAmAmAmUmAmGmCrArArGrUrUrArArArArUrArArGrGrCrUrArGrUrCrCrGrUrUrArUrCrAmAmCmUmUmGmAmAmAmAmAmGmUmGmGmCmAmCmCmGmAmGmUmCmGmGmUmGmCmU*mU*mU*mU

Test system: AAVS1
Assay: GFP insertion at AAVS1 in T cells with SpyCas9 RNP and gapped AAV templates, flow cytometry (Example 6)
Assay type: cell-based, human
Conditions: day 7 post-editing
Method: AAVS1 guide RNAs were designed and screened to identify insertion SpyCas9 guides using a series of gapped AAV GFP templates (A, B, C, D, OG) each designed for a subset of the guide RNAs. Insertion efficacy in T cells was examined by assessing GFP expression by flow cytometry. The percentage of T cells positive for green fluorescent protein (“% GFP+”) was assayed by flow cytometry, following AAVS1 editing by mRNA and AAV delivery.
Healthy human donor apheresis was obtained commercially (Hemacare) from two donors (#110042863 and #110040377) and cells were washed and resuspended in MACS Buffer containing 2 mM EDTA and 0.5% Fetal Bovine Serum (FBS) in PBS. Cells were washed twice by centrifugation followed by CD3 negative selection using Easy Sep Human T Cell Isolation Kit (Stemcell, Cat. 100-0695) and separated using Easy Sep Magnets (Stemcell, Cat.18000). T cells were aliquoted and cryopreserved for future use in Cryostor® CS10 (StemCell Technologies Cat. 07930).
AAVS1 guide RNAs were assessed for insertion efficacy in T cells by assessing GFP expression by flow cytometry. The percentage of T cells positive for green fluorescent protein (“% GFP+”) was assayed by flow cytometry, following AAVS1 editing by mRNA and AAV delivery.
AAVS1 targeting sgRNAs corresponding to the flanking homology regions of Gap Templates A, B, C, D, & OG (SEQ ID NOs: 299-303) were removed from their storage plates and denatured for 2 minutes at 95° C. before cooling at room temperature for 10 minutes. RNP mixture of 20 μM sgRNA and 10 μM Cas9-NLS protein (SEQ ID NO: 296) was prepared and incubated at 25° C. for 10 minutes. 2.5 μL of RNP mixture was combined with 250,000 cells in […] P3 electroporation Buffer (Lonza). 22 μL of RNP/cell mix was transferred to the corresponding wells of a Lonza shuttle 96-well electroporation plate. Cells were electroporated in duplicate with the manufacturer's pulse code. T cell media described above without any cytokines was added to the cells immediately post electroporation. T cells were rested for 10 minutes at 37° C. Gap Template AAVs were prepared in 48 well plates (Corning, Cat.353078)) with T cell media described above containing 2× cytokines, 400 U/mL recombinant human interleukin-2 (Peprotech, Cat. 200-02), 10 ng/ml recombinant human interleukin 7 (Peprotech, Cat. 200-07), and 10 ng/ml recombinant human interleukin 15 (Peprotech, Cat. 200-15) cytokines. The multiplicity of infection (MOI) of AAVs was 3×10^^5. AAVs were added to the T cells within 15 minutes post electroporation and incubated for 48 hours at 37° C. AAV-6 vectors encoded AAVS1 Template A, B, C, D or OG. Two days post-electroporation, cells were split 1:2 in 48 well plates replenished with T cell media with 1× cytokines as described above. sgRNAs were tested each with AAV constructs and gapped template.
On day 7 post-editing, cells were phenotyped by flow cytometry to determine GFP expression to confirm integration of AAV at their GAP template site. Briefly, T cells were washed in FACS buffer containing 2 mM EDTA (Invitrogen, Cat.15575020) and 1% FBS in PBS followed by re-suspending in FACS buffer containing 1:10,000 dilution of DAPI (Biolegend, Cat.422801) nuclear stain. Cells were then processed on a Cytoflex flow cytometer (Beckman Coulter) and analyzed using the FlowJo software package. T cells were gated based on size, shape, viability, and GFP expression. Values that were not determined by the flow cytometer were denoted as “ND”. Table 18 and FIGS. 8A-8B show mean percentage of T cells positive for GFP expression.

| Molecule | Mean percentage of T cells positive for GFP expression (Donor 1, Template D) [%] | Mean percentage of T cells positive for GFP expression (Donor 2, Template D) [%] | Mean percentage of T cells positive for GFP expression (Donor 1, Template A) [%] | Mean percentage of T cells positive for GFP expression (Donor 1, Template B) [%] | Mean percentage of T cells positive for GFP expression (Donor 2, Template A) [%] | Mean percentage of T cells positive for GFP expression (Donor 2, Template B) [%] | further results |
| --- | --- | --- | --- | --- | --- | --- | --- |
| B1 | 70.50 | 72.05 | – | – | – | – | – |
| B2 | – | – | – | – | – | – | Mean percentage of T cells positive for GFP expression (Donor 1, Template C): 65.65%; Mean percentage of T cells positive for GFP expression (Donor 2, Template C): 65.15% |
| B3 | 29.65 | 27.50 | 30.60 | 34.00 | 41.20 | 32.75 | Mean percentage of T cells positive for GFP expression (Donor 1, Template C): 57.95%; Mean percentage of T cells positive for GFP expression (Donor 1, Template OG): 41.75%; Mean percentage of T cells positive for GFP expression (Donor 2, Template C): 59.10%; Mean percentage of T cells positive for GFP expression (Donor 2, Template OG): 37.80% |
| B4 | – | – | – | 65.55 | – | 64.05 | – |
| B5 | – | – | 73.15 | 69.15 | 69.40 | 71.35 | – |
| B6 | – | – | 66.30 | – | 61.00 | – | – |
| B7 | 71.80 | 72.20 | – | – | – | – | – |
| B8 | – | – | – | 63.50 | – | 65.00 | – |
| B9 | – | – | 65.75 | 63.60 | 62.35 | 65.40 | – |
| B10 | – | – | – | – | – | – | Mean percentage of T cells positive for GFP expression (Donor 1, Template C): 61.15%; Mean percentage of T cells positive for GFP expression (Donor 2, Template C): 60.95% |
| B11 | – | – | 69.15 | – | 62.95 | – | – |
| B12 | – | – | 65.95 | 61.50 | 61.20 | 63.45 | – |
| B13 | 73.35 | 72.10 | – | – | – | – | – |
